B1: 125I-CPCR4 (peptide)
peptide: cyclo([dY](125I)RR[2Nal]G)
notes: also called radiolabeled CPCR4
B2: cyc[D-Tyr-His-Arg-Nal-Gly] (peptide)
peptide: cyclo([dY]HR[2Nal]G)
SMILES: N=C(N)NCCC[C@@H]1NC(=O)[C@H](Cc2c[nH]cn2)NC(=O)[C@@H](Cc2ccc(O)cc2)NC(=O)CNC(=O)[C@H](Cc2ccc3ccccc3c2)NC1=O
B3: cyc[D-Tyr-Arg-(Me)Arg-Nal-Gly] (peptide)
peptide: cyclo([dY]R[NMeR][2Nal]G)
notes: also called OD3
B4: cyc[D-Tyr-(Me)Arg-Arg-Nal-Gly] (peptide)
peptide: cyclo([dY][NMeR]R[2Nal]G)
SMILES: CN1C(=O)[C@@H](Cc2ccc(O)cc2)NC(=O)CNC(=O)[C@H](Cc2ccc3ccccc3c2)NC(=O)[C@H](CCCNC(=N)N)NC(=O)[C@@H]1CCCNC(=N)N
notes: also called OD1
B5: human chemokine receptor type 4 (CXCR4) (receptor, UniProt P61073 1-352, looked up)
chain: MEGISIYTSDNYTEEMGSGDYDSMKEPCFREENANFNKIFLPTIYSIIFLTGIVGNGLVILVMGYQKKLRSMTDKYRLHLSVADLLFVITLPFWAVDAVANWYFGNFLCKAVHVIYTVNLYSSVLILAFISLDRYLAIVHATNSQRPRKLLAEKVVYVGVWIPALLLTIPDFIFANVSEADDRYICDRFYPNDLWVVVFQFQHIMVGLILPGIVILSCYCIIISKLSHSKGHQKRKALKTTVILILAFFACWLPYYIGISIDSFILLEIIKQGCEFENTVHKWISITEALAFFHCCLNPILYAFLGAKFKTSAQHALTSVSRGSSLKILSKGKRGGHSSVSTESESSSFHSS
notes: whole, on cells; also called CXCR4 receptor; CXCR4 chemokine receptor
B6: cyc[D-Tyr-Arg-Arg-Nal-Dap(FP)-Gly] (peptide)
peptide: cyclo([dY]RR[2Nal][Dap]G)
modifications: not fully specified (residue 5); printed as cyc[D-Tyr-Arg-Arg-Nal-Dap(FP)-Gly]
notes: also called BL 58; BL58
B7: cyc[D-Tyr-Arg-Arg-nal-Ala-Gly] (peptide)
peptide: cyclo([dY]RR[nal]AG)
modifications: reading uncertain; also: printed as cyc[D-Tyr-Arg-Arg-nal-Ala-Gly]
notes: differs by nal against Nal; also called BL 40

The target in test [1] is B5. Description: radioligand binding on Jurkat and CMS5/CXCR4 cells.
Test [2] has as its target B5. Kind of test: saturation radioligand binding, Jurkat and CMS5/CXCR4 cells.
In test [3] the target is B5. Description: competition with 125I-CPCR4 tracer on CXCR4-expressing cells.
Test [4] has as its target B5. Described as above. This is another data set of the same source.
Test [5] deals with T1, recombinant human SDF-1α (stromal cell-derived factor 1α) (human, UniProt P48061-2 22-89).
T1 construct: also called SFD-1α
Description: competitive radioligand binding on CXCR4-expressing cells.

Test [6] has as its target B5. Description: competition with 125I-CPCR4 tracer on CXCR4-expressing cells. The source holds these as a separate data set.
For test [7], the target named is B5. The test is described as above. This is another data set of the same source.

Like-named read-outs stand apart in the source and are kept apart here. Square brackets hold non-standard residues; d marks the D form. * marks the point of attachment. 2Nal = N[C@@H](Cc1ccc2ccccc2c1)C(=O)O; NMeR = CN[C@@H](CCCNC(=N)N)C(=O)O; Dap = NC[C@H](N)C(=O)O; nal = not defined here; 125I = [125I]*

The Kd is the constant that tells how readily two partners part at equilibrium. The IC50 is the concentration needed to halve the response being measured. High values mean a need for much substance, low ones inhibition by little substance.

As for B1, the equilibrium dissociation constant (Kd) is 0.4 nM in test [1] and 0.3 to 0.4 nM in test [2].

B2 yielded a half-inhibitory concentration (IC50) in test [3] of 30 nM. That is a double-digit nanomolar value. Turning to B3, the IC50 in test [4] turned out to be 31 nM. This counts as double-digit nanomolar.

In test [4], B4 returned a half-inhibitory concentration (IC50) of 23 nM. Consider B5, for which the binding result in test [5] was “binds”. Turning to B6, in test [6], the IC50 is roughly 1000 nM.

In the case of B7, the half-maximal inhibitory concentration (IC50) in test [7] was roughly 1000 nM.
